The target in this assay is Z-Phe-Leu-Glu-4-nitranilide.

With recombinant V8 protease (V8D) (enzyme), the enzyme activity after refolding is 30 µg/mL.

(Values after US6037145.)
